Laboratory results: publication PMC7948479, “Allostery in the nitric oxide dioxygenase mechanism of flavohemoglobin” (The Journal of Biological Chemistry, 2020)
Where two headings read alike, the source gives them in different places.

Assays:
ferric cytochrome b5 = assay: Cytochrome b5 reductase activity; format: biochemical, rat; settings: 37 °C; 10 μM ferric cytochrome b5
Excerpt: Reagents were purchased from Sigma-Aldrich Chemical Co (St Louis, MO, USA) unless otherwise stated. DNA primers were synthesized at the University of Cincinnati Medical Center DNA facility. Praxair (Bethlehem, PA, USA) was the supplier of 99.993% O2, 99.999% CO, and 99.98% N2. Bovine liver catalase (260,000 U/ml) was obtained from Roche Applied Science. Recombinant rat cytochrome b5 (soluble form) and murine Ngb were expressed in E. coli and purified essentially as described ([10], [70]). NADH purity (≥95%) was assessed by the ratio of the 340 to 260 nm absorbance with a value of 0.437 equal to 100% reduced.

flavoHb = system: flavoHb; design: method as in PMID 22948361; settings: cited from earlier work
E. coli flavoHb [1] = target: E. coli flavoHb (Escherichia coli, UniProt P24232)
Method: (§1) FAD and heme reduction were monitored by following the changes in flavoHb absorbance at 460 and 430 nm, respectively, with stopped-flow rapid mixing of 50 μM NADH and 10 μM flavoHb in N2-purged buffer ([4]). O2, NO, and CO association rate constants were determined by photolyzing 50 μM of the respective ferrous flavoHb species with a 300-ns pulse from a 577-nm laser and by spectrophotometrically following ligand reassociation in O2-, NO-, or CO-saturated buffer unless otherwise indicated ([4], [5]). […] Binding of NO was measured by the change of absorbance at 422 nm by applying a difference extinction coefficient of 0.040 μM^−1 cm^−1. O2 and CO dissociation rate constants were determined by stopped-flow rapid mixing with either CO or NO displacement ([4], [5]). The cuvette path length was 1.0 cm. All reactions were at 20 °C in filtered 100 mM sodium phosphate buffer, pH 7.0, containing 0.3 mM EDTA. Catalase (1000 U/ml) was included in all reactions containing O2 to scavenge H2O2 produced by the NADH oxidase activity of flavoHb and to regenerate O2.

E. coli flavoHb [2] = system: E. coli flavoHb
Method: as §1

[3] = target: flavoHb heme (Fe^2+ / Fe^3+) (Escherichia coli, UniProt P24232)
Method: as §1

[4] = system: flavoHb heme (Fe^2+ / Fe^3+); settings: for Kd: from slow phase; for time for 90% activity recovery following NO binding: calculated from k(NO)
Method: as §1

[5] = Fe2+ CO, 100 µM CO in the presence of 0.6 mM N2
[6] = Fe2+ O2, 100 µM CO in the presence of 1 mM O2

B1: WT: wild-type E. coli flavohemoglobin (flavoHb), an NO dioxygenase (NOD) (protein, UniProt P24232 1-396, looked up)
Flavohemoprotein: MLDAQTIATVKATIPLLVETGPKLTAHFYDRMFTHNPELKEIFNMSNQRNGDQREALFNAIAAYASNIENLPALLPAVEKIAQKHTSFQIKPEQYNIVGEHLLATLDEMFSPGQEVLDAWGKAYGVLANVFINREAEIYNENASKAGGWEGTRDFRIVAKTPRSALITSFELEPVDGGAVAEYRPGQYLGVWLKPEGFPHQEIRQYSLTRKPDGKGYRIAVKREEGGQVSNWLHNHANVGDVVKLVAPAGDFFMAVADDTPVTLISAGVGQTPMLAMLDTLAKAGHTAQVNWFHAAENGDVHAFADEVKELGQSLPRFTAHTWYRQPSEADRAKGQFDSEGLMDLSKLEGAFSDPTMQFYLCGPVGFMQFTAKQLVDLGVKQENIHYECFGPHKVL
Ferric cytochrome b5
  cytochrome b5 reductase activity: 0.14 s⁻¹
flavoHb
  kET by time-resolved pulse radiolysis: 6800 s⁻¹
E. coli flavoHb [1]
  k′H, bimolecular rate constant for hydride transfer NADH to FAD: 1.5e+07 M⁻¹ s⁻¹
E. coli flavoHb [2]; 20 °C, absorbance at 430 nm
  kET, heme reduction by FADH2 (maximum / apparent): 120 s⁻¹
E. coli flavoHb [2]; Fig. 9B
  maximal NADH-driven ET rate measured by stopped flow: 160 s⁻¹
[3]
  decrease of fraction of flavoHbFe^3+O2^− formed in the fast phase: ~50%
  τT for O2 rebinding: ~55 μs
[4]; [5]
  k' fast: 2.9e+07 M⁻¹ s⁻¹
  k' slow: 2.7e+06 M⁻¹ s⁻¹
  τT: 500 ± 100 µs
[4]; [6]
  k' fast: 2.9e+07 M⁻¹ s⁻¹
  k' slow: 1.9e+06 M⁻¹ s⁻¹
  τT: 70 ± 10 µs
[4]; Fe^2+ CO, 20 °C
  k′fast: 1.4e+07 M⁻¹ s⁻¹
  k′slow: 1.4e+06 M⁻¹ s⁻¹
  τT: 175 ± 25 μs
  Kd: 12 to 39 nM
[4]; Fe^2+ NO, 20 °C
  k′fast: 3.1e+07 M⁻¹ s⁻¹
  k′slow: 8.5e+06 M⁻¹ s⁻¹
  τT: 40 ± 10 μs
[4]; Fe^2+ NO
  Kd: 0.024 nM
[4]; Fe^2+ O2, 20 °C
  k′fast: 3.3e+07 M⁻¹ s⁻¹
  k′slow: 1.4e+07 M⁻¹ s⁻¹
  τT: 70 ± 5 μs
[4]; Fe^2+ O2 dissociation, 20 °C
  k: 0.20 s⁻¹
[4]; Fe^3+ NO, 20 °C
  k′fast: 4.6e+07 M⁻¹ s⁻¹
  k′slow: 1.2e+07 M⁻¹ s⁻¹
  τT: 18 ± 3 μs
[4]; Fe^3+ NO
  Kd: 330000 nM
[4]; ferric NO form
  time for 90% activity recovery following NO binding: 0.6 ms
[4]; ferrous NO species
  time for 90% activity recovery following NO binding: 1.15e+07 ms
